Measured values taken from patent publication US20220204643A1 (published 2022).

Experiments:
[1] = target: T1, kelch like family member 40 (human, UniProt Q2TBA0 1-621)
T1 construct: HuProt array protein, full-length recombinant from yeast; also called KLHL40
T1 sequence: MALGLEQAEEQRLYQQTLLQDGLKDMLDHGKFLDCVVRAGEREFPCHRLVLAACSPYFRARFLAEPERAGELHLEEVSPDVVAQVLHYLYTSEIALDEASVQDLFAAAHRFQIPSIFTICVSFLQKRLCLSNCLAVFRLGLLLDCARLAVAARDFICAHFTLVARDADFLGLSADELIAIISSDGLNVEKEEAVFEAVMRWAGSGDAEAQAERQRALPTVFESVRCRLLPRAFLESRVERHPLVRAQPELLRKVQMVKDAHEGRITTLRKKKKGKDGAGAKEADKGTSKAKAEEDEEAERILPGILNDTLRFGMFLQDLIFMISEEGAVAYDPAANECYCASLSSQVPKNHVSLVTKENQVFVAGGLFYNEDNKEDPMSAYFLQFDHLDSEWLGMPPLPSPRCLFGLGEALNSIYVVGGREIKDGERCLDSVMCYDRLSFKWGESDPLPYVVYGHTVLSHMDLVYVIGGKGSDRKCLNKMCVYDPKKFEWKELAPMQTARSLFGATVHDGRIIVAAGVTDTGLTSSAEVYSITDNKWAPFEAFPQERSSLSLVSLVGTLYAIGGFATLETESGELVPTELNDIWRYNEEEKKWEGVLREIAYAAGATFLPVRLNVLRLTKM

[2] = target: T2, membrane palmitoylated protein 2, transcript variant 3 (human, UniProt Q14168 1-576)
T2 construct: HuProt array protein, full-length recombinant from yeast; also called MPP2
T2 sequence: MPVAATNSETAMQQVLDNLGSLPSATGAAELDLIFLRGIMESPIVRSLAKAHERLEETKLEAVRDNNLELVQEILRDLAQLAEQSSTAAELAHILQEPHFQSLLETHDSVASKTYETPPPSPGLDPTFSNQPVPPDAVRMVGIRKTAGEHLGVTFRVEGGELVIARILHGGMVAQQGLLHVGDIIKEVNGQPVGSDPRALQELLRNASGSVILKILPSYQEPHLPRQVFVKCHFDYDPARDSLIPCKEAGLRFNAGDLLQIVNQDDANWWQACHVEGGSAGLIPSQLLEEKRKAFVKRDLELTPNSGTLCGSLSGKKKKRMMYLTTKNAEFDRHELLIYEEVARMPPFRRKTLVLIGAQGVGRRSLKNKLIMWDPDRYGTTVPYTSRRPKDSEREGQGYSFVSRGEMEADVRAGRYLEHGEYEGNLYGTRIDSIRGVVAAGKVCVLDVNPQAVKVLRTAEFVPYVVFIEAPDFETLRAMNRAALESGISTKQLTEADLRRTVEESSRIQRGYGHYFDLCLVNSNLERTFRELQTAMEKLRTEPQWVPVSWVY

[3] = target: T3, zinc finger with KRAB and SCAN domains 4, transcript variant X1 (human, UniProt Q969J2 1-545)
T3 construct: HuProt array protein, full-length recombinant from yeast; also called ZKSCAN4
T3 sequence: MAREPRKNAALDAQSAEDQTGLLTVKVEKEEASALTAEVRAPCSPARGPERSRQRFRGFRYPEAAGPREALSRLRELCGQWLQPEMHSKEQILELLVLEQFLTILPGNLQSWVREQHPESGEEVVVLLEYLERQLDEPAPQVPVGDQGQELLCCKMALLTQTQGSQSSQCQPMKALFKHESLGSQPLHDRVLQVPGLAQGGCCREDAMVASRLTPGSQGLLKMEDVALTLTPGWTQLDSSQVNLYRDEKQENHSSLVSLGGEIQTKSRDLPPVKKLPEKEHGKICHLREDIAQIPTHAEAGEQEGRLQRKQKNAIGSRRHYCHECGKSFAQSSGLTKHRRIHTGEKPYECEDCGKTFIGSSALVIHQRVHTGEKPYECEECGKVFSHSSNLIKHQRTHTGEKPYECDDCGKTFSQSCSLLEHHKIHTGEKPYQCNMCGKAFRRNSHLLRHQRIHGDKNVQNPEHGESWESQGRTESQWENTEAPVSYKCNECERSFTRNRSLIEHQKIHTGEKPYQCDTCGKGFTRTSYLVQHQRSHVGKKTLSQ

[4] = target: T4, glucuronidase, beta pseudogene (human)
T4 construct: HuProt array protein; labelled _frag; pseudogene product; also called BC025996.2_frag
T4 chain: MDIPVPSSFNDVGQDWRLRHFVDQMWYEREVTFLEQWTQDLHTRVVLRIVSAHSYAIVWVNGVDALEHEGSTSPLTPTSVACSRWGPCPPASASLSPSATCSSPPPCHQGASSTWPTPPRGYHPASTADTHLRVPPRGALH

[5] = target: T5, dual specificity phosphatase 12 (human, UniProt Q9UNI6 1-340)
T5 construct: HuProt array protein, full-length recombinant from yeast; also called DUSP12

[6] = target: T6, actinin alpha 1, transcript variant 2 (human, UniProt P12814 1-892)
T6 construct: HuProt array protein, full-length recombinant from yeast; also called ACTN1

[7] = target: T7, 5-hydroxytryptamine receptor 1E (human, UniProt P28566 1-365)
T7 construct: HuProt array protein, full-length recombinant from yeast; also called HTR1E

[8] = target: T8, olfactory receptor family 6 subfamily Q member 1 (gene/pseudogene) (human, UniProt Q8NGQ2 1-317)
T8 construct: HuProt array protein, full-length recombinant from yeast; also called OR6Q1
T8 sequence: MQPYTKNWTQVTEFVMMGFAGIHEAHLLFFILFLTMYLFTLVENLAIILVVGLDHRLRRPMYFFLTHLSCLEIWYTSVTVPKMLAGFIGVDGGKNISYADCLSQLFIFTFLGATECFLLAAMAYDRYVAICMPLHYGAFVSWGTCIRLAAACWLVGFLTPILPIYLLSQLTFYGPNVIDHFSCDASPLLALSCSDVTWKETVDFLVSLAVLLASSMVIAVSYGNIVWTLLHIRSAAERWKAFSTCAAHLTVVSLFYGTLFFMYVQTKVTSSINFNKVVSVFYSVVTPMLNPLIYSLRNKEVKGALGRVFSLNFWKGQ

[9] = target: T9, microfibril associated protein 3, transcript variant 3 (human, UniProt P55082 19-362)
T9 construct: HuProt array protein, full-length recombinant from yeast; also called MFAP3

cancer/testis antigen 1A = target: T10, cancer/testis antigen 1A (human, UniProt P78358 1-180)
T10 construct: HuProt array protein, full-length recombinant from yeast; also called CTAG1A

[10] = target: T11, butyrophilin subfamily 1 member A1 (human, UniProt Q13410 27-526); assay: protein array
T11 construct: on protein array; also called BTN1A1
T11 sequence: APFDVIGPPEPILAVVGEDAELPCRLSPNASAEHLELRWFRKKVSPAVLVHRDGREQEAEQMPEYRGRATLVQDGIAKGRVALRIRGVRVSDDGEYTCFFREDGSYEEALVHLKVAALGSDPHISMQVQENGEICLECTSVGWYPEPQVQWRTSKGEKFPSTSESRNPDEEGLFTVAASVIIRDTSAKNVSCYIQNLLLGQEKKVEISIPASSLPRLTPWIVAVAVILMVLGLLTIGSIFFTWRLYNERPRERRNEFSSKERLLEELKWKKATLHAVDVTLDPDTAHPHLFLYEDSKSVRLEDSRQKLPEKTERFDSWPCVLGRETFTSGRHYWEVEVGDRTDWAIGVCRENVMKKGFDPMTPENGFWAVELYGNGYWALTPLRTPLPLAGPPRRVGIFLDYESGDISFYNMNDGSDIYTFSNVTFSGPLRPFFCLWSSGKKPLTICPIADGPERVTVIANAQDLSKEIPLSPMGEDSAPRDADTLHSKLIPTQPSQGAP

T10 sequence (P78358 whole entry): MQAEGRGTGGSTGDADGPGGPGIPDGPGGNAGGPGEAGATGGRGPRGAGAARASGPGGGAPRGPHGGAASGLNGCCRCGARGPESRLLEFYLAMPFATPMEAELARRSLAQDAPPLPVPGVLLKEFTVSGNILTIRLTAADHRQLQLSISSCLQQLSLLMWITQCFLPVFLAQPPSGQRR
T6 sequence (P12814 whole entry, change not shown): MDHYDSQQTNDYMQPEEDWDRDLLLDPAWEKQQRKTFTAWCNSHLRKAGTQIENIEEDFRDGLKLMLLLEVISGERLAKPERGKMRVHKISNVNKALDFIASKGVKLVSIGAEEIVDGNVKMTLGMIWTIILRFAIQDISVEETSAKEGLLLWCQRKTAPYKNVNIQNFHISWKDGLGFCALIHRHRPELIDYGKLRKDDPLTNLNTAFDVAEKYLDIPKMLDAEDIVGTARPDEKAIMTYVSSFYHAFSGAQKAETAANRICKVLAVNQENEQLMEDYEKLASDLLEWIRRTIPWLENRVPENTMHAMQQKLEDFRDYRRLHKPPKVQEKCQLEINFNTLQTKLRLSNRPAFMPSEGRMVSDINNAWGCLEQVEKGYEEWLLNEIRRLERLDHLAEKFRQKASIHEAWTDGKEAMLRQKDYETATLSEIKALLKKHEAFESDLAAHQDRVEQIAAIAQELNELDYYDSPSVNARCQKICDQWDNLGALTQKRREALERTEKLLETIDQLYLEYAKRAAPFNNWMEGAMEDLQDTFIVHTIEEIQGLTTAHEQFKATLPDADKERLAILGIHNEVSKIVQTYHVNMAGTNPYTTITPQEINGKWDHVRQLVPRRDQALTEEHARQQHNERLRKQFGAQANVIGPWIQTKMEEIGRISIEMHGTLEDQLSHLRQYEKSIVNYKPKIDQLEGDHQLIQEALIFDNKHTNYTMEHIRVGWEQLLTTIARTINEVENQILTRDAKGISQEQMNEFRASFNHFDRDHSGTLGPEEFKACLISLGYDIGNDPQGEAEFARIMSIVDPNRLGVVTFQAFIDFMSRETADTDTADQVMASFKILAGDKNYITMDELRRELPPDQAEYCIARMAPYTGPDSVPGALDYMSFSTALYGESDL
T9 sequence (P55082 19-362 limits assumed, change not shown): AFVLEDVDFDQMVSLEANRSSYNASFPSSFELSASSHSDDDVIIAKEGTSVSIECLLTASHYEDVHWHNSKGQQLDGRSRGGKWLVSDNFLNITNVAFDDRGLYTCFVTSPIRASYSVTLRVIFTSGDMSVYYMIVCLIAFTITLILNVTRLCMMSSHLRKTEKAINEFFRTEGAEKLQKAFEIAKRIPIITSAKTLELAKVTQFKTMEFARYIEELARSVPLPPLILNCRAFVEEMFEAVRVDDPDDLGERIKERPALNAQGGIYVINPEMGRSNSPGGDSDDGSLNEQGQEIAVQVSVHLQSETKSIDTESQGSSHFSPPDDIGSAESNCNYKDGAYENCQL
T7 sequence (P28566 whole entry): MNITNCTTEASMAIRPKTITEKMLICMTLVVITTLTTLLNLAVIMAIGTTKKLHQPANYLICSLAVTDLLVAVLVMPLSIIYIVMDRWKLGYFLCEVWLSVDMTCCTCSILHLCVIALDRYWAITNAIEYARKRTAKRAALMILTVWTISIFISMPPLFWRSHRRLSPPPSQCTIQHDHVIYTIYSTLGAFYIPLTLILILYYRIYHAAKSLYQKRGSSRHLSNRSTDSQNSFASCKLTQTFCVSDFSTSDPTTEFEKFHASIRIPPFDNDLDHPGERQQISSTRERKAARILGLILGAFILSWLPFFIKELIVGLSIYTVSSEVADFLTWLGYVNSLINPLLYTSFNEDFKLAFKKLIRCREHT
T5 sequence (Q9UNI6 whole entry): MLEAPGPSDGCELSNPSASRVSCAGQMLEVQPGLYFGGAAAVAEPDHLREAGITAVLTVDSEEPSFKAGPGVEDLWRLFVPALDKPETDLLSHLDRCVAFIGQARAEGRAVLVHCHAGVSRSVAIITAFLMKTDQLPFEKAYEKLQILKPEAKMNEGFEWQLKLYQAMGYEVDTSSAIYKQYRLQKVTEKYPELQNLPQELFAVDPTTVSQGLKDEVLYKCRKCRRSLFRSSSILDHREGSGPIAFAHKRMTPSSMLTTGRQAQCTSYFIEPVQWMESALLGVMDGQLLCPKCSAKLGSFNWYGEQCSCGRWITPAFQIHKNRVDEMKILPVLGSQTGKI

B1: TBRE1012 (antibody, V domains shown)
VH: QVQLQESGPGLVKPTQTLSLTCTVSGGSISSGSYYWNWIRQPAGKGLEWIGNIYTSGNTDYNPSLKSRVTISLDTSKNQVSLNLTSVTAADTAVYYCATTPSSSWYWYFDPWGQGTLVTVSS
VL: DLQMTQSPSSLSASIGDRVTITCRASQSISTYFNWYQQKPGKAPKLLIYAASSLQSGVPSRFSGSGSGTDFTLTITSLQPEDFATYYCQQTYSNPWTFGQGTKVDFKR
notes: detected with anti-human IgG Fc
[1]
  binding result: binds
[2]
  binding result: binds

B2: TBRE1009 (antibody, V domains shown)
VH: EVQLVESGGGLVKPGGSLRLSCVGSGFTFSNYSMNWVRQAPGRGLEWVSSISWGSSYINYADSVKGRFTISRDNAKNSLYLQMTSLTAEDTAVYYCACRRIYQGFDPWGQGTLVT
VL: DIQMTQSPSSLSASVGDRVTISCRASHNINTYLNWYQHKPGKAPKIVIYGASSLQSGVPSRFSGSGSGTDFSLTISSLQREDFATYFCQQSFNTVLTFGGGTRVDI
notes: as for B1
[3]
  binding result: binds

B3: TBRE1006 (antibody, V domains shown)
VH: QVQLVQSGAEVKKPGASVKVSCKASGYIFTSYAIHWVRQAPGQRLEWMGWINAGNGNTKYSQKFQGRVTITRDTSANTAYMELSSLRSEDTAIYYCARDIAVAITNYFGSWGQGTLVTVSS
VL: EIVLTQSPATLSLSPGERATLSCRASQSVGSYLAWYQQKPGQAPRLLIYDASNRATGIPARFSGSGSGTDFTLTISSLEPEDFAVYYCQQGSNWLALTFGGGTKVEIKR
notes: as for B1
[4]
  binding result: binds

B4: TBRE1007 (antibody, V domains shown)
VH: QVQLQESGPGLVRPSETLSLTCDVSGYLISSGYYWGWVRQPPGKGLEWIGSVYHSGNAYYNPSLKGRVTMSVDTSKNQFSLKLTSVAAEDTAVYYCAREHRSGYQRYWGQGTLVTVSS
VL: IQMTQSPSSLSASVGDRVTITCRASQAIANSLAWYQQRPGKAPKLLIYAASSLESGVPSRFSGSGSGTDYTLTISSLQPEDFATYYCQQYYINPRTFGQGTKVEIKR
notes: as for B1
[5]
  binding result: binds
[6]
  binding result: binds

B5: TBLA1013 (antibody, V domains shown)
VH: EVQLLESGGGLVQPGGSLTLSCVGSRFTFSSYAMNWVRQSPGRGLEWVASISATTGSTYYTDSVEGRFTISRDNSRDTLYLQMNSLRADDTALYYCVRSFVGAVPAYPNFDFWGPGTLVTVSS
VL: PSGLTQPPSASGTPGQRVTMSCSGSSSNIGRNYVYWYQQLPGAAPKLLIYRDNQRPSGVPDRFSGSKSGTSASLAISGLRSEDEADYYCAAWDDNVSGPGFGAGTRLTVLG
notes: as for B1
[7]
  binding result: binds

B6: TBLA1010 (antibody, V domains shown)
VH: EVQLVESGGGLVQPGRSLRLSCAASGFPFGDYAMHWVRQAPGKGLEWVSGIGWDSGGIGYADSVKGRFTISRDIAKNSLYLEINSLRPDDTALYYCAKAAATLPYFRFAMDVWGQGTPVTVSS
VL: EIVLTQSPGTLSLSPGERATLSCRASQSVSSSYLAWYQQKPGQAPRLLIFGASTRASGIPDRFSGRGSGTEFTLTISRLEPEDFAVYYCQQYDSSPFTFGPGTKVEIKR
notes: as for B1
[8]
  binding result: binds

B7: TBRE1002 (antibody, V domains shown)
VH: QVQLVESGGGVVQPGGSLRLSCGASGFAFSSNGMHWVRQAPGKGLEWVAFIHYDGRNKHYTDSVKGRFAISVDDSKTTLYLQMSSLKTEDTAVYYCVKDSRVTGQSSGYIFDSWGQGTLVTVSS
VL: ETVMTQSPATLSVSPGDRATLSCRASQNVNFNLAWYQQKPGQAPRLLIYDASTRATGIPARFSGSASGTEFTLTINSLQSEDFAVYYCQQYNNWWTFGQGTKLEIKR
notes: as for B1
[9]
  binding result: binds

B8: TBLA1012 (antibody, V domains shown)
VH: LLQLVESGGGVVQPGRSLRLSCAASGFTFTRHGFHWVRQAPGKGLEWVAVISSDGRKIHYTDSVKGRFVISRDDSDNTVYLHMNSLRLGDTALYYCARDSGGTPGPYWGQGTLVTVSS
VL: DVVMTQSPLSLPVTLGQPASISCRSSQSLVHSDGNTYLNWFQQRPGQSPRRLIYMVSNRDSGVPDRFSGSGSGTDFTLKISRVEAEDVGVYYCLQGTHWPPTIGQGTKVEIE
notes: as for B1
cancer/testis antigen 1A
  binding result: binds

B9: TBRE1013 (antibody, V domains shown)
VH: EVQLVESGGGLVKPGGSLRLSCAGSGFSFSSYSMNWVRQAPGKGLEWVSSISSKSSSKNYIDSVKNRFIISRDNAKNSLYLQMNSLRAEDTAVYYCARDLELIIAAGAPLDHWGQGTLVTVSS
VL: DIQMTQSPSSLSASVGDRVTITCRASQSIKNYVNWYQQKPGEAPNLLIFAASNLQSGVPSRFTGSGSGTDFSLTISSLQPEDFAAYYCQQTYSHPRTFGQGTRVEIKR
notes: VH/VL only
[10]
  binding result: binds
